The target of data set [1] is T1, choline-O-sulfatase (COS) (Sinorhizobium meliloti, UniProt O69787).
T1 construct: gene betC; full length, C-terminal His6 tag kept, pET26b+, codon-optimized gene, E. coli BL21(DE3); 59 kDa, homodimer (123 kDa); active-site Cys54 unmodified (no formylglycine)
Put plainly: isothermal titration calorimetry, multiple injections. The data set is classed as biochemical. The following applies: substrate inhibition constant, second site; 200 mM Tris-HCl pH 7.5, 500 mM NaCl, 25 °C; enzyme without FGly. From the text: (§1) isothermal titration calorimetry, multiple injections on choline-O-sulfatase (COS)

Data set [2] has as its target T1, choline-O-sulfatase (COS). Put plainly: spectrophotometric pNPS hydrolysis, […] nm. The data set is classed as biochemical.
Substrate in data set [3]: O=[N+]([O-])c1ccc(OS(=O)(=O)O)cc1
Put plainly: purified protein. The data set is classed as biochemical, Sinorhizobium meliloti. The following applies: 200 mM Tris-HCl pH 7.5, 500 mM NaCl, 25 °C, 1-80 mM substrate, no saturation reached, enzyme without FGly.

Substrate in data set [4]: Cc1cc(=O)oc2cc(OS(=O)(=O)O)ccc12
Put plainly: purified protein. Format: biochemical, Sinorhizobium meliloti. The following applies: 200 mM Tris-HCl pH 7.5, 500 mM NaCl, 25 °C, 1-20 mM substrate, no saturation reached, enzyme without FGly.

Data set [5] concerns the molecule itself. Put plainly: SEC; analytical gel filtration on Superdex 200 10/300 GL, non-denaturing conditions, calibrated with Bio-Rad Gel Filtration Standard (1.35-670 kDa). (In general: Size exclusion chromatography separates by hydrodynamic size, large species first.)
Substrate in data set [6]: C[N+](C)(C)CCOS(=O)(=O)[O-]
Put plainly: isothermal titration calorimetry, multiple injections. Format: biochemical, Sinorhizobium meliloti. The following applies: 200 mM Tris-HCl pH 7.5, 500 mM NaCl, 25 °C, fit with substrate inhibition, enzyme without FGly.
Source text: as §1
Background: ITC needs no label: the signal is the heat of the interaction.

As a reminder, the Ki is a dissociation constant, usually derived from enzyme kinetics or from competition with a known ligand. What is called Km is the substrate concentration at which the rate is half of its maximum. The term kcat denotes the maximal rate divided by the concentration of active sites. In general, kcat/Km refers to the second-order rate constant that governs catalysis at low substrate concentration. By stoichiometry N is commonly meant the number of molecules, sites or subunits per partner or assembly.

On to `C[N+](C)(C)CCOS(=O)(=O)[O-]` [choline-O-sulfate], for which the “Ki (mM) ^a” value in data set [1] amounted to 11.4 ± 1.1 mM.
Consider `C[N+](C)(C)CCO` [choline], for which the affinity in data set [2], expressed as Ki, was 57.8 mM.

B1: Ensifer (Sinorhizobium) meliloti choline-O-sulfatase (enzyme, UniProt O69787 1-512, looked up)
chain: MTTGKPNILIIMVDQLNGKLFPDGPADFLHAPNLKALAKRSARFHNNYTSSPLCAPARASFMAGQLPSRTRVYDNAAEYQSSIPTYAHHLRRAGYYTALSGKMHFVGPDQLHGFEERLTTDIYPADFGWTPDYRKPGERIDWWYHNLGSVTGAGVAEITNQMEYDDEVAFLANQKLYQLSRENDDESRRPWCLTVSFTHPHDPYVARRKFWDLYEDCEHLTPEVGAIPLDEQDPHSQRIMLSCDYQNFDVTEENVRRSRRAYFANISYLDEKVGELIDTLTRTRMLDDTLILFCSDHGDMLGERGLWFKMNFFEGSARVPLMIAGPGIAPGLHLTPTSNLDVTPTLADLAGISLEEVRPWTDGVSLVPMVNGVERTEPVLMEYAAEASYAPLVAIREGKWKYVYCALDPEQLFDLEADPLELTNLAENPRGPVDQATLTAFRDMRAAHWDMEAFDAAVRESQARRWVVYEALRNGAYYPWDHQPLQKASERYMRNHMNLDTLEESKRYPRGE
notes: choline-O-sulfatase (betC gene product) of Ensifer (Sinorhizobium) meliloti, GenBank AAC13371.1; gene codon optimized for E. coli and subcloned in pET26b+; expected 59 kDa with the His6-tag; Active-site Cys54 is unmodified (no formylglycine) as expressed in E. coli; two of the six cysteines form a disulfide bridge; also called COS; choline sulfatase; source: E. coli BL21 (DE3), purified (His-Trap …)
With B1, in data set [3], the Km stood at 75.8 ± 15.0 mM, the kcat is 0.035 ± 0.004 s⁻¹ and the specificity constant (kcat/Km) amounted to 0.46 ± 0.11 M⁻¹ s⁻¹. In addition, in data set [4], the Km came out at 11.8 ± 1.4 mM, the kcat is 0.043 ± 0.007 s⁻¹ and the kcat/Km worked out at 3.64 ± 0.73 M⁻¹ s⁻¹. Also, the “stoichiometry N” value in data set [5] was 2. Besides, in data set [6], the Km worked out at 11.1 ± 1.0 mM, the kcat came to 0.27 ± 0.02 s⁻¹ and the kcat/Km was found to be 24.3 ± 2.84 M⁻¹ s⁻¹.

Source of the values: paper PMC6189696, “Choline sulfatase from Ensifer (Sinorhizobium) meliloti: Characterization of the unmodified enzyme” (Biochemistry and Biophysics Reports, 2015).
